Substitutions are numbered along the chain they refer to.
B1: FcγRIIa-m11 (receptor)
chain: MGQAAAPPKAVLKLEPPWTNVLQEDSVTLTCQGARSPESDSVLWFHNGNLIPTQTQLTYRFKATSNDSGEYTCQTGQTSLSDPVHLTVLSEWLVLQPPRLEFQEGETIMLRCHSWKDKPLVKVTFFQNGKSQKFSHLDPTFSIPQANHSHSGDYHCTGNIGYTSFSSKPVTITVQGGHHHHHH
B2: FcγRIIa-m10C (receptor)
chain: B1 chain with T19I
B3: FcγRIIa-m10B (receptor)
chain: B1 chain with L43Q
B4: FcγRIIa-m10A (receptor)
chain: B1 chain with L57P
B5: FcγRIIa-m11-Del3 (receptor)
chain: MGQAAAPPKAVLKLEPPWTNVLQEDSVTLTCQGARSDSVLWFHNGNLIPTQTQLTYRFKATSNDSGEYTCQTGQTSLSDPVHLTVLSEWLVLQPPRLEFQEGETIMLRCHSWKDKPLVKVTFFQNGKSQKFSHLDPTFSIPQANHSHSGDYHCTGNIGYTSFSSKPVTITVQGGHHHHHH
B6: FcγRIIa-m11-Del5 (receptor)
chain: MGQAAAPPKAVLKLEPPWTNVLQEDSVTLTCQGADSVLWFHNGNLIPTQTQLTYRFKATSNDSGEYTCQTGQTSLSDPVHLTVLSEWLVLQPPRLEFQEGETIMLRCHSWKDKPLVKVTFFQNGKSQKFSHLDPTFSIPQANHSHSGDYHCTGNIGYTSFSSKPVTITVQGGHHHHHH
B7: FcγRIIa-m11-Del7 (receptor)
chain: MGQAAAPPKAVLKLEPPWTNVLQEDSVTLTCQDSVLWFHNGNLIPTQTQLTYRFKATSNDSGEYTCQTGQTSLSDPVHLTVLSEWLVLQPPRLEFQEGETIMLRCHSWKDKPLVKVTFFQNGKSQKFSHLDPTFSIPQANHSHSGDYHCTGNIGYTSFSSKPVTITVQGGHHHHHH
B8: FcγRIIa-m11-Del2 (receptor)
chain: MGQAAAPPKAVLKLEPPWTNVLQEDSVTLTCQGARPSDSVLWFHNGNLIPTQTQLTYRFKATSNDSGEYTCQTGQTSLSDPVHLTVLSEWLVLQPPRLEFQEGETIMLRCHSWKDKPLVKVTFFQNGKSQKFSHLDPTFSIPQANHSHSGDYHCTGNIGYTSFSSKPVTITVQGGHHHHHH
B9: FcγRIIa-m11-Del4 (receptor)
chain: MGQAAAPPKAVLKLEPPWTNVLQEDSVTLTCQGASDSVLWFHNGNLIPTQTQLTYRFKATSNDSGEYTCQTGQTSLSDPVHLTVLSEWLVLQPPRLEFQEGETIMLRCHSWKDKPLVKVTFFQNGKSQKFSHLDPTFSIPQANHSHSGDYHCTGNIGYTSFSSKPVTITVQGGHHHHHH
B10: FcγRIIa-m11-Del1 (receptor)
chain: MGQAAAPPKAVLKLEPPWTNVLQEDSVTLTCQGARPESDSVLWFHNGNLIPTQTQLTYRFKATSNDSGEYTCQTGQTSLSDPVHLTVLSEWLVLQPPRLEFQEGETIMLRCHSWKDKPLVKVTFFQNGKSQKFSHLDPTFSIPQANHSHSGDYHCTGNIGYTSFSSKPVTITVQGGHHHHHH
B11: FcγRIIa-m11-Del6 (receptor)
chain: MGQAAAPPKAVLKLEPPWTNVLQEDSVTLTCQGDSVLWFHNGNLIPTQTQLTYRFKATSNDSGEYTCQTGQTSLSDPVHLTVLSEWLVLQPPRLEFQEGETIMLRCHSWKDKPLVKVTFFQNGKSQKFSHLDPTFSIPQANHSHSGDYHCTGNIGYTSFSSKPVTITVQGGHHHHHH

Target: gamma-globulin preparation (The Chemo-Sero-Therapeutic Research Institute), a human antibody (human)
Experiment: ELISA on immobilised human gamma-globulin, anti-6His detection; antibody binding activity after acid treatment (pH 3.0, 24 h, 30 C) divided by that without treatment

Binder | RESIDUAL ACTIVITY [%]
B1 | 95.3%
B2 | 72.9%
B3 | 46.9%
B4 | 77.3%

Target: gamma-globulin preparation (The Chemo-Sero-Therapeutic Research Institute), a human antibody (human)
Experiment: ELISA on immobilised human gamma-globulin, anti-6His detection; antibody binding activity after acid treatment (pH 3.0, 72 h, 30 C) divided by that without treatment

Binder | RESIDUAL ACTIVITY [%]
B5 | 72.4%
B1 | 83.6%
B6 | 86.5%
B7 | 33.3%
B8 | 81.3%
B9 | 76.7%
B10 | 89.8%
B11 | 25.4%

From patent EP3757216B1
